B1: THAP1; numbered along this chain (parent)
chain: MVQSCSAYGCKNRYDKDKPVSFHKFPLTRPSLCKEWEAAVRRKNFKPTKYSSICSEHFTPDCFKRECNNKLLKENAVPTIFLCTEPHDKKEDLLEPQEQLPPPPLPPPVSQVDAAIGLLMPPLQTPVNLSVFCDHNYTVEDTMHQRKRIHQLEQQVEKLRKKLKTAQQRCRRQERQLEKLKEVVHFQKEKDDVSERGYVILPNDYFEIVEVPA

Variants of: B1
Experiment: THAP1 transcriptional activity (GFP+/GFP- enrichment relative to wild-type constructs) (ratio to WT); higher = more THAP1 activity (PSMB5 reporter activation)
Settings: with PSMB5 promoter-GFP reporter
Description: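 Deep mutational scan of human THAP1. Site-saturation single amino acid variant library (residues 2-213) was expressed by lentivirus at MOI ~0.3 in THAP1-knockout HEK-293T cells carrying an endogenous PSMB5 promoter-GFP knock-in reporter. Five days post-transduction, BFP+ cells were FACS-sorted into GFP dim and GFP bright populations and variants were counted by Illumina sequencing. Activity is the GFP-bright/GFP-dim read fold change, mean of 2 replicates, divided by the mean fold change of wild-type (synonymous) constructs in the same screen pool; WT = 1.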

THAP1 transcriptional activity, by site and new letter:
Y14: A 0.211, M 0.0755, D 0.122, Q 0.142, T 0.0786, P 0.164, G 0.085, C 0.157, S 0.124, L 0.146, R 0.36, I 0.119, N 0.165, H 0.106, W 0.851, F 0.5, K 0.083, V 0.151, E 0.0718
G9: A 0.209, Q 0.115, V 0.0945, F 0.148, R 0.256, K 0.4, T 0.132, N 0.241, P 0.116, H 0.283, M 0.381, Y 0.149, L 0.184, D 0.196, S 0.167, C 0.261, I 0.144, W 0.167
K18: A 0.356, V 0.618, Q 0.511, R 0.936, S 0.384, E 0.152, W 0.131, C 0.238, P 0.0831, H 0.202, N 0.432, G 0.258, T 0.348, F 0.11, M 0.186, I 0.444, L 0.367, D 0.0802, Y 0.142
K16: F 0.117, M 0.105, I 0.197, Q 0.164, G 0.17, H 0.0905, S 0.191, N 0.0777, R 0.661, A 0.284, D 0.0673, Y 0.158, T 0.136, L 0.129, P 0.334, V 0.255, E 0.125, W 0.208, C 0.121
V20: M 0.155, R 0.261, Q 0.139, P 0.101, N 0.161, E 0.148, A 0.135, Y 0.312, F 0.204, I 1.71, S 0.0781, T 0.58, L 0.297, C 0.141, H 0.115, W 0.141, K 0.0912, G 0.125, D 0.128
A7: Q 0.1, H 0.179, I 0.165, G 0.118, T 0.0906, M 0.279, W 0.0983, K 0.186, Y 0.218, V 0.612, E 0.154, R 0.122, P 0.0917, N 0.133, D 0.0976, S 0.122, F 0.19, L 0.156, C 0.163
N12: Y 0.149, C 0.0986, S 0.283, R 0.172, K 0.125, L 0.0949, H 0.108, A 0.107, Q 0.22, E 0.111, F 0.112, G 0.0923, T 0.097, V 0.129, P 0.0735, W 0.121, M 0.199, D 0.0987, I 0.0667
S21: E 0.0854, F 0.11, A 0.0835, D 0.0962, C 0.0926
R13: A 0.17, T 0.147, E 0.153, C 0.132, W 0.232, N 0.126, K 0.211, I 0.116, D 0.115, M 0.0992, H 0.117, Y 0.0688, S 0.133, F 0.14, P 0.0852, V 0.185, L 0.229, G 0.106, Q 0.122
Q3: T 0.534, V 0.563, S 0.278, R 0.187, P 0.186, N 0.442, M 0.486, Y 0.149, W 0.0989
Y8: S 0.467, L 0.795, H 0.464, K 0.356, I 0.484, W 1.08, N 0.449, A 0.581, D 0.564, C 0.192, Q 0.509, F 0.667, T 0.785, E 0.484, M 0.368, R 0.374, V 0.472, P 0.58, G 0.241
S6: G 0.123, K 0.122, M 0.172, W 0.163, L 0.0726, I 0.183, R 0.223, Q 0.103, D 0.163, F 0.149, E 0.153, P 0.185, H 0.106, N 0.174, Y 0.202, V 0.541, C 0.562, T 0.309, A 0.787
D17: H 1.05, G 0.387, Q 1.12, K 1.31, Y 0.747, R 1.11, I 0.0905, N 0.707, P 0.129, M 1.14, C 0.541, F 0.706, E 0.889, A 1.12, V 0.314, T 1.49, W 0.509, L 0.861, S 1.49
C5: Y 0.118, S 0.0878, Q 0.133, A 0.147, F 0.125, H 0.127, G 0.131, D 0.262, M 0.18, I 0.0585, K 0.167, R 0.132, V 0.174, N 0.208, P 0.0866, L 0.147, W 0.202, T 0.162, E 0.115
D15: P 0.107, C 0.853, R 0.656, V 0.631, G 0.411, L 0.298, M 0.419, S 0.562, T 0.679, H 0.997, F 0.272, N 0.605, A 0.754, Y 0.172, I 0.436, E 0.569, W 0.122, Q 1.05, K 0.704
P19: R 0.675, H 0.266, S 0.78, L 0.412, M 0.208, Y 0.197, V 0.213, E 0.528, A 0.691, G 0.547, C 0.529, W 0.162, N 0.682, I 0.186, Q 0.335, F 0.276, D 0.681, T 0.681, K 0.674
K11: M 0.124, V 0.529, Q 0.354, C 0.369, Y 0.201, G 0.133, N 0.629, P 0.178, A 0.284, D 0.0638, S 0.282, R 0.771, W 0.0942, H 0.343, I 0.265, T 0.513, E 0.121, L 0.191
C10: W 0.125, D 0.129, H 0.0737, G 0.098, V 0.175, F 0.113, I 0.0687, Q 0.125, K 0.156, S 0.308, P 0.114, T 0.0641, R 0.157, N 0.121, E 0.0982, M 0.103, Y 0.106, L 0.167
S4: G 0.254, Y 0.123, R 0.164, F 0.177, L 0.241, D 0.154, M 0.201, T 0.966, E 0.103, A 0.338, I 0.182, K 0.127, W 0.171, H 0.111, Q 0.114, V 0.187, C 0.233, P 0.142, N 0.14

Source: the supplement of paper PMC11811203
